Source: IntAct's records for PubMed 18056643

B1: Tyrosine-protein phosphatase non-receptor type 22 (Homo sapiens), Q9Y2R2 (parent)
chain: MDQREILQKFLDEAQSKKITKEEFANEFLKLKRQSTKYKADKTYPTTVAEKPKNIKKNRYKDILPYDYSRVELSLITSDEDSSYINANFIKGVYGPKAYIATQGPLSTTLLDFWRMIWEYSVLIIVMACMEYEMGKKKCERYWAEPGEMQLEFGPFSVSCEAEKRKSDYIIRTLKVKFNSETRTIYQFHYKNWPDHDVPSSIDPILELIWDVRCYQEDDSVPICIHCSAGCGRTGVICAIDYTWMLLKDGIIPENFSVFSLIREMRTQRPSLVQTQEQYELVYNAVLELFKRQMDVIRDKHSGTESQAKHCIPEKNHTLQADSYSPNLPKSTTKAAKMMNQQRTKMEIKESSSFDFRTSEISAKEELVLHPAKSSTSFDFLELNYSFDKNADTTMKWQTKAFPIVGEPLQKHQSLDLGSLLFEGCSNSKPVNAAGRYFNSKVPITRTKSTPFELIQQRETKEVDSKENFSYLESQPHDSCFVEMQAQKVMHVSSAELNYSLPYDSKHQIRNASNVKHHDSSALGVYSYIPLVENPYFSSWPPSGTSSKMSLDLPEKQDGTVFPSSLLPTSSTSLFSYYNSHDSLSLNSPTNISSLLNQESAVLATAPRIDDEIPPPLPVRTPESFIVVEEAGEFSPNVPKSLSSAVKVKIGTSLEWGGTSEPKKFDDSVILRPSKSVKLRSPKSELHQDRSSPPPPLPERTLESFFLADEDCMQAQSIETYSTSYPDTMENSTSSKQTLKTPGKSFTRSKSLKILRNMKKSICNSCPPNKPAESVQSNNSSSFLNFGFANRFSKPKGPRNPPPTWNI

Variants of: B1
Conditions: with kpcd_human PRKCD
With S35E the “effect of a mutation on the interaction” value was “decreasing interaction”.
